Results as given in article PMC4433741.

Experiments:
Assay in all cases: SPR
[1] = molecular target: human FcγRIIIa, His-tagged (human) (UniProt P08637)
[2] = molecular target: neonatal Fc receptor (FcRn), soluble, His-tagged (UniProt P55899); conditions: pH 6.0; Running buffer not stated; Table 1 labels the measurement pH 6.0
[3] = molecular target: human neonatal Fc receptor (FcRn), His-tagged (human) (UniProt P55899)

Chain of UniProt P08637 (P08637 17-208): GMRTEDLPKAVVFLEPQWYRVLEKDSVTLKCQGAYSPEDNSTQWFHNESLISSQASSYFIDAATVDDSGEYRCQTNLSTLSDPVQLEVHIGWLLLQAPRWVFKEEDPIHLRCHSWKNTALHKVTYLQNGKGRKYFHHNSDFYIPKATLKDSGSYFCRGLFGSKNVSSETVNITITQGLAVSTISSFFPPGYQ

Row | Kd [1] [nM] | koff [1] [s⁻¹] | Kon [2] [M⁻¹ s⁻¹] | koff [2] [s⁻¹] | koff [3] [s⁻¹] | kon [3] [M⁻¹ s⁻¹] | Substance
1 | 1300 | 0.105 |  |  |  |  | VRC01 (the wild type) (antibody)
2 |  |  | 94000 | 0.279 |  |  | VRC01 (wild-type Fc) IgG1
3 | 4500 | 0.187 |  |  |  |  | VRC01-IHH (non-FcRn-binding mutant) (antibody)
4 | 1010 | 0.1 |  |  | 0.0558 | 223000 | VRC01-LS (antibody)
